“Also recorded” adds a separate entry of the source.
What was measured:
[1] = test system: Claudin 5 in b.End3 cells; test: Claudin 5 expression in endothelial cells by Western blot; format: cell-based, mouse; details: incubation with RGM proteins, vs PBS
Description: Cells were pretreated for 6 h with PBS, RGMc, RGMa or RGMc+RGMa. Western blotting was performed on the lysates with Claudin-5 and GAPDH antibodies.
Next, the BBB permeability was assessed by injecting mice with BSA, RGMa, RGMa plus RGMc and subsequently followed by assessment of Texas dye leakage using widefield imaging as an indication of BBB integrity. […] Thus, Claudin 5 expression following RGMa/c treatments of murine-derived brain endothelial cells (b.End3) was studied. B.En3 cells were grown up to 80% confluency and were treated with overnight incubation with RGM proteins.

[2] = test system: blood brain barrier of mice; test: BBB permeability, Texas red dye leakage by widefield imaging; format: in vivo, mouse; details: mice injected with RGMa plus the agent
Description: Mice were treated with RGMa (70 ug), RGMa (70 ug)+RGMc (70 ug), or Vehicle (1% BSA) 18 h prior to widefield imaging (100-300 ms exposure) prior to and following intravenous injection of Texas Red dye (0.5 mg) over time. […] (B) Quantification of the leakage of Texas Red dye (measured as the number of leakage sites/mm^2).
BBB integrity was assessed in mice treated with PBS (Vehicle), RGMa, RGMc, RGMa+ immunoglobulin domain of Neogenin (4Ig). Widefield imaging was then carried out under a Olympus microscope (BX6 1WI) prior to and following the injection of Texas red dye (100 uL, I.V., 5 mg/ml) using 100-300 ms exposure. Recording was performed from 0 min to 35 min following injection. Texas dye leakage was also assessed in RGMc knockout (KO) and wild type (WT) mice. The leakage of Texas-red dye was quantified by a blind experimenter measuring the number of leakage sites/mm^2. (A) Representative images of Texas red dye: PBS (Vehicle), RGMa, RGMa+RGMc and RGMa+4Ig (immunoglobulin domain of Neogenin). Quantification of the leakage of Texas Red dye in animals treated with (B) PBS (Vehicle), RGMa or RGMa+RGMc or in RGMc KO and WT mice or (C) PBS (Vehicle), RGMa, RGMa+RGMc or RGMa+4Ig.
Mice injected with BSA, RGMc, RGMa, or RGMa+RGMc. […] Leakage of Texas red dye was quantified by a blind experimenter measuring the number of leakage sites/mm^2. […]

[3] = test system: rats subjected to MCAO; test: MCAO, neurological deficit (Bederson test); format: in vivo, rat; details: tail-vein injection of 70 μg, 7 day period, vs PBS
Description: In a separate experiment, whether RGMc treatment, which prevents BBB disruption following stroke, could lead to functional recovery (FIG. 25) was studied. Rats were subjected to MCAO and treated with either tail-vein injection of 70 μg of RGMc or control (PBS).

[4] = molecular target: T1, Neogenin (Homo sapiens, UniProt Q92859); test: In vitro competition binding assay (AP-tagged proteins); details: competition assay, FIG. 6C
T1 construct: His-tagged proteins (2.5 μg/mL of extracellular-Neogenin or sRGMa or sRGMc) were then coated onto each well; His tag (coated format); Alkaline phosphatase (AP) fusion (solution format, Ec-Neogenin-AP); made in house
T1 sequence (Q92859 34-1105 limits assumed): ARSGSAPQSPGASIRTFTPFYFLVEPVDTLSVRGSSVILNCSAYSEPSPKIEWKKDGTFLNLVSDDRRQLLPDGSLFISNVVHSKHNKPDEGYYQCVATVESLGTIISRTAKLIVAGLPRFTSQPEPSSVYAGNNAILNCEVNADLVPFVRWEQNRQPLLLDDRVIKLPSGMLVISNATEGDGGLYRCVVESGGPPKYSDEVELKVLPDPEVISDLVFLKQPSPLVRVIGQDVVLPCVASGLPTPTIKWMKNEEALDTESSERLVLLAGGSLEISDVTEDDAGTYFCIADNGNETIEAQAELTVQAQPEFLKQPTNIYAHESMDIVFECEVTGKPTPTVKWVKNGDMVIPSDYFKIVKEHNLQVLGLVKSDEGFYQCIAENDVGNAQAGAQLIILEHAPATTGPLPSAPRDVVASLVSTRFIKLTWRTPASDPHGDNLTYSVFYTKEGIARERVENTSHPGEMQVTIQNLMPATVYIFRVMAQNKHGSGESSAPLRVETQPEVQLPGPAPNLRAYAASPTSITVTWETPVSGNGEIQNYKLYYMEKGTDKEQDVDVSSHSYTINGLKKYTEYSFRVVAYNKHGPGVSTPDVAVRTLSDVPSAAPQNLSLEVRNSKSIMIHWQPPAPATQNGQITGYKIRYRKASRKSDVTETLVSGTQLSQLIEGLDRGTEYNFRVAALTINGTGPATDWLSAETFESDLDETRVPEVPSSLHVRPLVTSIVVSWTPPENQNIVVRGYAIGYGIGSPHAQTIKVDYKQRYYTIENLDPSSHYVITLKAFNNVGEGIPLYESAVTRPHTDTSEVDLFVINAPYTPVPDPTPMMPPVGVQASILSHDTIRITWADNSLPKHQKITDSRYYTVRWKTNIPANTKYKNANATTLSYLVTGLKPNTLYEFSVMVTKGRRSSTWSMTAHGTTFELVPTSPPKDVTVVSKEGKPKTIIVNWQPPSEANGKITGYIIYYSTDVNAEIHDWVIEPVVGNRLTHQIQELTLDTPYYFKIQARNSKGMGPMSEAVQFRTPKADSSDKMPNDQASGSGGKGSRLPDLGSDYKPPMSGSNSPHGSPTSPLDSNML
Description: (C) Binding of Neogenin to bovine serum albumin (Neogenin+BSA), to RGMa (Neogenin+RGMa), and to RGMc (Neogenin+RGMc) in RGMa-AP and in RGMc-AP. Constructs overexpressing His-tagged sRGMa, sRGMc and the extracellular domains of Neogenin (Ec-Neogenin) were coated onto Poly-L-Lysine coated wells. Alkaline Phosphatase (AP)-tagged proteins (EC-Neogenin or RGMa or RGMc) were then added to each well and incubated at 37° C. for 1 h. Each well was washed and equilibrated with AP developing buffer (100 mM NaHCO3, 1 mM MgCl2). The reaction was initiated using AP developing buffer supplemented with p-nitrophenyl phosphate and then stopped following color development by adding 50 μl (0.1M) NaOH. The absorbance of each reaction was measured using a microplate autoreader at 405 nm as described in the Examples. (D) Binding of Neogenin-AP to bovine serum albumin (Neogenin-AP+BSA), to RGMa (Neogenin-AP+RGMa), and to RGMc (Neogenin-AP+RGMc). Competition assay was performed as described in the Examples and above but in which the constructs were reversed.
Using a 96-well microtiter plate (Corning), wells coated with 100 μl (10 μg/mL) of Poly-L-Lysine (Sigma-Aldrich) incubated at 4° C. overnight were then washed 3× with 100 μl of PBST (+0.02% Tween-20). […] The absorbance of each reaction was measured using a microplate autoreader (BioTek EL311 AutoReader) at 405 nm.

[5] = test system: EAE-induced mice; test: In vivo BBB permeability, fibrinogen extravasation in spinal cord; parameters: species or system mouse; details: EAE day 18; treated every 3 days; vs vehicle
Description: To establish the role of RGMc on BBB permeability, 6-8 week old C57Bl/6 female mice induced with EAE and treated with sRGMc or vehicle (n=6 animals per group) were anesthetized 18 days post induction and trans-cardially perfused with 20 mL PBS followed by 20 mL 4% paraformaldehyde in PBS (PFA) (Electron Microscopy Sciences). Spinal cords were cryo-sectioned at 10 μm thickness and stored at −80° C. The sections were stained for Fibrinogen (Innovative Research); CD31 (Invitrogen); and DAPI (Sigma-Aldrich). All images were obtained using a BX61 confocal microscope (Olympus). CellSens software was used for quantification of cell area and pixel intensity. The area (number of pixels) and fluorescent intensity (mean pixel intensity) of the extravasation markers were measured using CellSens software (Olympus). The relative extent of fluorescent extravasation and BBB disruption was then calculated by multiplying the area with the fluorescent intensity.

B1: sRGMc: truncated form of RGMc with the GPI anchor sequence removed, released as a soluble protein (SEQ ID NOs: 1 and 3) (protein, listed as Homo sapiens)
chain: CKILRCNAEYVSSTLSLRGGGSSGALRGGGGGGRGGGVGSGGLCRALRSYALCTRRTARTCRGDLAFHSAVHGIEDLMIQHNCSRQGPTAPPPPRGPALPGAGSGLPAPDPCDYEGRFSRLHGRPPGFLHCASFGDPHVRSFHHHFHTCRVQGAWPLLDNDFLFVQATSSPMALGANATATRKLTIIFKNMQECIDQKVYQAEVDNLPVAFEDGSINGGDRPGGSSLSIQTANPGNHVEIQAAYIGTTIIIRQTAGQLSFSIKVAEDVAMAFSAEQDLQLCVGGCPPSQRLSRSERNRRGAITIDTARRLCKEGLPVEDAYFHSCVFDVLISGDPNFTVAAQAALEDARAFLPDLEKLH
Claudin 5 levels [1]: did affect Claudin5 levels | RGMa-induced disruption of BBB integrity (Texas Red dye leakage) [2]: suppressed; also recorded: ameliorated | functional scores (Bederson test) [3]: significant (*p<0.05) improvement of functional scores | interference with RGMa binding to Neogenin [4]: interferes with RGMa for its binding to Neogenin | fibrinogen extravasation [5]: significant decrease

Source: patent US10874712B2, “Methods, compounds and compositions for modulating blood brain barrier integrity and re-myelination” (University Health Network, priority 2015, dated 2020)
